The text below walks through data of the nanobody polyreactivity screen of Harvey et al. (2022).

A short description of the data set: yeast display, Sf9 membrane polyspecificity reagent, FACS + sequencing; frameworks hold sequencing errors. The essentials:
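A nanobody's polyreactivity label depends on the gate it was sorted from. Yeast display cells were stained with 10% biotinylated, detergent-solubilized Sf9 membrane reagent for 1 hour at 4 °C, enriched on streptavidin microbeads and sorted by FACS. The low and high (top ~1%) gates were set on anti-HA fluorescence for expression and streptavidin fluorescence for reagent binding.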
Turning to “QVQLVESGGGLVQAGGSLRLSCAASGITFASYAMGWYRQAPGKERELVAAISTRSGGTYYADSVKGRFTISRDNAKNTVYLQMNSLKPEETAVYYCAAYNVIYTRRMYYWGQGTQVTVSS”, the “polyreactivity (PSR sort gate)” value is on record as “high polyreactivity”.

For “QVQLVESGGGLVQAGGSLRLSCAASGITFATNAMGWYRQAPGKERELVAAISWSGGSTYYADSVKGRFTISRDNAKNTVYLQMNSLKPEDTAVYYCATGYSVWYDYWGQGTQVTLSS”, the “polyreactivity (PSR sort gate)” value is listed as “low polyreactivity”.

“QVQLVESGGGLVQAGGSLRLSCAASGITFAWYAMGWYRQAPGKEREFVAAITGSGGRTYYADSVKGRFTISRDIAKNTVYLQMNSLKPEDTAVYYCATASSVSGARYDYCGQGTQVTVSS”: the “polyreactivity (PSR sort gate)” value is recorded as “high polyreactivity”.

As for “QVQLVESGGGLVQAGGSLRLSCAASGITFAYNAMGWYRQAPGKERELVARITSGGRTYYADSVKGRFTISRDNAKNTVYLQMKSLKPEDTAVYYCNAKEGSRYRKYDYWGPGTQVTVSS”, the “polyreactivity (PSR sort gate)” value was “low polyreactivity”. The result for “QVQLVESGGGLVQAGGSLRLSCAASGITFAYNTMGWYRQAPGKERELVAGISVSGASTYYADSVKGRFTISRDNAKNSVYLQMNSLKPEDTAVYYCAAPRWVANQYREYDYWGQGTQVTVSS” reads “high polyreactivity”; that for “QVQLVESGGGLVQAGGSLRLSCAASGITFAYYAMGWYRQAPGKERELVAAITRRGSSTYYADSVKGRFTISRDNAKNTVYLQMNSLKPEDTAVYYCAAVAYGRERYDYWGQGTQVTVSS”, “high polyreactivity”; that for “QVQLVESGGGLVQAGGSLRLSCAASGITFAYYARGWYRQAPGKERELVAAITGDGGYTYYADSVKGRFTISRDNAKNTVYLQMNSLKPEDTAVYYCNAELSDYRYDWWDYDYWGQGTQVTVSS”, “high polyreactivity”. With “QVQLVESGGGLVQAGGSLRLSCAASGITFDGNAMGWYRQAPGKERELVAAITSGGSTYYADSVKGRFTISRDNAKNTVYLQMNSLKPEDTAVYYCAKEPPPVKGDYWGQGTQVTVSS”, the “polyreactivity (PSR sort gate)” value is “low polyreactivity”. The result for “QVQLVESGGGLVQAGGSLRLSCAASGITFDGYAMGWYRQAPGKERELVAAIRSSGGSTYYADSVKGRFTISRDNAKNTVYLQMNSLKPEDTAVYYCATDHAQKFRYRSPREYWGQGTQVTVSS” reads “low polyreactivity”; that for “QVQLVESGGGLVQAGGSLRLSCAASGITFDGYAMGWYRQAPGKESELVAGISWSGARSYYADSVKGRFTISRDNAKYTVYLHMNSLKPEDTAVYYCNKVSLRNHGGYDYWGQGTQVTVSS”, “high polyreactivity”; that for “QVQLVESGGGLVQAGGSLRLSCAASGITFDKYAMGWYRQAPGKERELVAAISGSDGSTYYADSVKGRFTISRDNAKNTVYLQMNSLKPEDTAVYYCAAESEYAGTYEYDYWGQGTQVTVSS”, “low polyreactivity”.

With “QVQLVESGGGLVQAGGSLRLSCAASGITFDLYAMGRYRQAPGKERELVAASTYYADSVKGRFTISRDNAKNTVYLQMNSLKPEDTAVYFCNTREPVTYDYWGQGTQVTVSS”, the “polyreactivity (PSR sort gate)” value is “high polyreactivity”. Turning to “QVQLVESGGGLVQAGGSLRLSCAASGITFDLYDMGWYRQAPGKERELVAAITDADSTYYADSVKGRFTISRDNAKNTVYLQMNSLKPADTAVYYCAADFFYSVYSGHYDYWGQGTQVTVSS”, the “polyreactivity (PSR sort gate)” value is “low polyreactivity”. In the case of “QVQLVESGGGLVQAGGSLRLSCAASGITFDRNVMGWYRKSPGKETELVAAISKSGGRTYYADSVKGRFTISRDIAKNTVYLQMNSLKTEDTAVYDCNADFYSRKSLHQYDYWGQGTQVTVSS”, the “polyreactivity (PSR sort gate)” value is listed as “high polyreactivity”.

Take “QVQLVESGGGLVQAGGSLRLSCAASGITFDRYAMAWYRHAPGKERELVAAITSSGGRTYYADSVKGRFTISRDNAKNTVYLQMNSLKPEDTAVYYCNTPWQNRADSHRDYWGQGTQVTVSS”: the “polyreactivity (PSR sort gate)” value is reported as “high polyreactivity”.

Consider “QVQLVESGGGLVQAGGSLRLSCAASGITFDSNAMGWYRQAPGKERELVAVISSSGGSTNYADSVKGRFTISRDNAKNTVYLQMKSLKPEDTAVYYCAADYRFYYTRWEYSFNYWGQGTQVTVSS”, for which the “polyreactivity (PSR sort gate)” value was “high polyreactivity”. Next, “QVQLVESGGGLVQAGGSLRLSCAASGITFDYYAMGWYRPAPGKERELVAAISGSGARTYYADSVKGRFTISRDTAKNTFYLQMNSLKPEDTAVYYCAAEYYTVPPGGIEDYWGQGTQVTVSS”: “high polyreactivity”. “QVQLVESGGGLVQAGGSLRLSCAASGITFEDYAMGWYRQAPGKERELVAAISWSGDITYYADSVKGRFTISRDNAKNTVYLQMNSLKPVDTAVYYCAADLSPYGYDYWGQGTQVTVSS”: the “polyreactivity (PSR sort gate)” value was “low polyreactivity”. Next, “QVQLVESGGGLVQAGGSLRLSCAASGITFEGYAMGWYRQAPGKERELVAAIRSSGTSTYYADSVKGRFTISRDNAKNTVYLQMYSLKPEDTAVYYCNRARSSSRYDYWGQGTQVTVSS”: “low polyreactivity”.

On to “QVQLVESGGGLVQAGGSLRLSCAASGITFEVYAMGWYRQAPGKERELVAVITSVGSTNYADSVKGRFTISRDNAKNTVYLQMNSLKPEDTAVYFCAAEKWTVRRFNPYTYYRFDYWGHGTQVTVSS”, for which the “polyreactivity (PSR sort gate)” value is reported as “low polyreactivity”. Next, “QVQLVESGGGLVQAGGSLRLSCAASGITFFLYAMGWYRQAPGKERELVAVISASGGSTYYADSVKGRFTISRDNAKNTVYLQMNSLKPEDTAVYYCAAGYRFYGFYAHDYWGQGTQVTVSS”: “high polyreactivity”; “QVQLVESGGGLVQAGGSLRLSCAASGITFFPYAMGWYRQAPGKERELVASISDGGGTNYADSVKGRFTISRDNAKNTVYFQMNSLKPEDTAVYYCATDASTYAYYGGDYWGQGTQVTVSS”: “low polyreactivity”. Next, “QVQLVESGGGLVQAGGSLRLSCAASGITFFRYAMGWYRQAPGKERELVATIRSGDRTYYADSVKGRFTISRDNAKNTVYLQMNSLKPEDTAVYYCAAYDNRYTIRPENYWGQGTQVTVSS”: “high polyreactivity”; “QVQLVESGGGLVQAGGSLRLSCAASGITFFTYAMGWYRQAPGKERELVATISRSGGRTYYADSVKGRFTISRDNAKNTVYLQMNSLKPEDTAVYYCAARTYYWGALIVSYDYWGQGTQVTVSS”: “low polyreactivity”.

For the sequence “QVQLVESGGGLVQAGGSLRLSCAASGITFFYNAMGWYRQAPGKERELVAAISTSGGSTHYADSVKGRFTISRDIAKNTVYLQMNSLKPEDTAVYYCAARGRYRLYGYWGQGTQVTVSS”, the “polyreactivity (PSR sort gate)” value is on record as “high polyreactivity”. Turning to “QVQLVESGGGLVQAGGSLRLSCAASGITFFYYAMGWYTQAPGKERELVAAISTSGGRTYYADSVKGRFTISRDNAKNTVYLQMHSLKPEDTAVYYCAARSRVQPAGPRYDYWGQGTQVTVSS”, the “polyreactivity (PSR sort gate)” value is given as “high polyreactivity”. Next, “QVQLVESGGGLVQAGGSLRLSCAASGITFGANALGWYRQAPGKERELVAEITWSGGDTYYADSVKGRFTISRDNAKNTVYLQMNSLKPEDTAVYYCNALQPGLGSPLGEYDYWGQGTQVTVSS”: “low polyreactivity”; “QVQLVESGGGLVQAGGSLRLSCAASGITFGANTMGCYRQAPGKERELVSAITISGGITHYADSVKGRVTISRDNAKHTVYLQLNSLKPEDTAVNYCAAGAYWRLYPYRQRNGGRRYYWGQGTQVTVSW”: “low polyreactivity”. Turning to “QVQLVESGGGLVQAGGSLRLSCAASGITFGDNAMGWYRQAPGKERELVAAISSGGSTDYADSVKGRFTISRDNAKNTVYLQMNSLNPEDTAVYYCAVDWVSVPEYDYWGQGTQVTVSS”, the “polyreactivity (PSR sort gate)” value is given as “low polyreactivity”. For “QVQLVESGGGLVQAGGSLRLSCAASGITFGEYAMGWYRQAPGKERQLVAAITTSGTSTYYADSVKGRFTISRDNAKNTDYLQMNSLKPEDTAVYYCAAYSRAAAGFYSSRRDYYWGQGTQVSVSS”, the “polyreactivity (PSR sort gate)” value is “low polyreactivity”. Next, “QVQLVESGGGLVQAGGSLRLSCAASGITFGFNAMGWNRQAPGKERELVAAITWSVGRTYYADSVKGRFTISRDNAKNTVYLQMNSLKPEDTAVYYCAKDFEAGDDYFAYDYWGQGTQVTVSS”: “low polyreactivity”; “QVQLVESGGGLVQAGGSLRLSCAASGITFGFNAMGWYRQAPGKERELVAAITWSVGRTYYADSVKGRFTISRDNAKNTVYLQMNSLKPEDTAVYYCAKDFEAGDDYFAYDYWGQGTQVTVSS”: “low polyreactivity”.

In the case of “QVQLVESGGGLVQAGGSLRLSCAASGITFGGNALGWYRQAPGTERELVAGIDDGGSTNYADSVKGRFTISRDNAKNTVYLQMNSLKPEDTAVYYCAVQGHPPLVILPGFLFDYWGQGTQVTVSS”, the “polyreactivity (PSR sort gate)” value was “low polyreactivity”.

Regarding “QVQLVESGGGLVQAGGSLRLSCAASGITFGGNAMGWSRQAPGKERELVAAIDEGGGSTYYADSVKGRFTISRDNAKNTVYLQMNSLKPEDTAVYYCAADFVYYGYYYWGQGTQVTVSS”, the “polyreactivity (PSR sort gate)” value is reported as “low polyreactivity”.

As for “QVQLVESGGGLVQAGGSLRLSCAASGITFGGNAMGWYRQAPGKERELVAAISRRGGSTYYADSVKGRFTISRDNAKNTVYLQMNSLKPEDTAVYYCAAYDPVNSPGYDYWGQGTQVTVSS”, the “polyreactivity (PSR sort gate)” value is recorded as “high polyreactivity”. For the sequence “QVQLVESGGGLVQAGGSLRLSCAASGITFGIYAMGWDRQAPGKERELVAAISLSGGSTYYADSVKGRFTISRDNAKNTVYLQMNSVKPEDTAVYYCNARRNRYGEYYWGQGTQVTVSS”, the “polyreactivity (PSR sort gate)” value is reported as “high polyreactivity”.

Regarding “QVQLVESGGGLVQAGGSLRLSCAASGITFGKNAMVWYRQAPGKEREFDAAISWGGGRTYYADSVKGRFTISRDNAKNTVYLQMNSLKPEDTAVYYCNVGPRAGWYRSNYDYWGQGTQVTVSS”, the “polyreactivity (PSR sort gate)” value is recorded as “low polyreactivity”. The result for “QVQLVESGGGLVQAGGSLRLSCAASGITFGNYAMGWYRQAPGKDRELVAAITGSGGRTYYADSVKGRFTISRDNAKNTVYLQMNSLKPEDTAVYYCNRRQYGRKKQYDYWGQGTQVTVSS” reads “low polyreactivity”. The result for “QVQLVESGGGLVQAGGSLRLSCAASGITFGNYAMGWYRQAPGKEREFVAAISQSYGRTYYADSVKGRFTISRDNAKNTVYLQMNSLKPEDTAVYYCAARTRGSSRGDYDYWGQGTQVTVSS” reads “high polyreactivity”. Next, “QVQLVESGGGLVQAGGSLRLSCAASGITFGPYAMGWYRQAPGKERELVATISSSGGSTYYADSVKGRFTISRDNAKNTVYLQMNSLIPEDTAVYYCNAGYAPYLGAYDYWGQGTQVTVSS”: “low polyreactivity”.

For “QVQLVESGGGLVQAGGSLRLSCAASGITFGQNAMGWYRQAPGKEREYVATITASGSTYYADSVKGRFTISRDNAKNTVYLQMNSLKPEDTAVYYCATRYAGEYYWDYDYWGQGTQVTVSS”, the “polyreactivity (PSR sort gate)” value is “high polyreactivity”.
